Measured values: the supplement of paper PMC10567573
± gives the standard deviation.

Test: protein stability index of a GFP-peptide fusion (GPS, HEK-293T) (PSI 1-6); higher = more stable
Conditions: c terminus: a fixed tail appended
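Also: 24-mer peptide tiles fused after GFP, lentivirally expressed, FACS-sorted into six equal bins by GFP/DsRed ratio, decoded by Illumina sequencing, PSI is the read-weighted mean bin number.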

Sequence	protein stability index (treatment: DMSO)	protein stability index (treatment: MLN4924 1 uM, 8 h)
MEGTPTIKSKKKLLQIIDTTLLKC [VPS39]	2.25 ± 0.24	2.36 ± 0.25
MELSWGQSPGQPVQGGSEAWGPGT [TEX19]	3.86 ± 0.53	4.06 ± 0.36
MGGAVSAGEDNDELIDNLKEAQYI [PCMTD2]	5.1 ± 0.15	4.95 ± 0.21
MGQWQLEVGDPAPLGAGNLGPELI [DPCD]	3.42 ± 0.23	3.48 ± 0.2
MGSGTSTQHHFAFQNAERAFKAAA [PPEF2]	3.46 ± 0.43	2.98 ± 0.25
MKVKVIPVLEDNYMYLVIEELTRE [HAGHL]	2.94 ± 0.55	2.95 ± 0.56
MLSPQRVAAAASRGADDAMESSKP [ATL3]	5.21 ± 0.22	5.25 ± 0.25
MMRGLSYSLTTSSTHKSSLCKVEI [RAB40A]	2.31 ± 0.59	2.28 ± 0.46
MNPYNAVLTKKFQVTMRGLLSCLS [FBXO39]	2.7 ± 0.75	2.72 ± 0.23
MQEFFGLKVTGKPDAETLKVMKQP [MMP1]	3.47 ± 0.15	3.53 ± 0.34
MQRKQSLGKPDQKDLNENLAATQG [DLC1]	5.11 ± 0.37	4.99 ± 0.45
MRDLYMKNGQGFALVYSITAQSTF [RAP1B]	2.85 ± 0.79	2.78 ± 0.6
MSGDGATEQAAEYVPEKVKKAEKK [CSTF3]	5.52 ± 0.18	5.65 ± 0.15
MSGQTLTDRIAAAQYSVTGSAVAR [SNAP91]	4 ± 0.19	3.98 ± 0.2
MSPGDCPPETTETPKCSSPRGQEG [YJU2B]	5.44 ± 0.43	5.5 ± 0.11
MSPLQAMSSYTVAGRNVLRWDLSP [NLN]	2.06 ± 0.31	2.55 ± 0.42
MSSHLVEPPPPLHNNNNNCEENEQ [BNIP3L]	5.56 ± 0.11	5.67 ± 0.11
MTDQQAEARSYLSEEMIAEFKAAF [TNNC2]	4.22 ± 0.13	4.25 ± 0.16
MTKAQESLTLEDVAVDFTWEEWQF [ZNF649]	3.36 ± 0.12	3.74 ± 0.44
MTLPLLRQTSTKAVQHFYNIKLEG [ESRRG]	2.48 ± 0.18	2.44 ± 0.26
MTNHQLSTTEWNDETLYQEFNGLK [CHIT1]	4.37 ± 0.4	4.56 ± 0.19
MVQQIQENSVEFEACLVAQCDALI [TRIM9]	2.9 ± 0.35	2.97 ± 0.36
NAGLSSTAGLLREQVAQLKQKVMT [JUNB]	3.42 ± 0.24	3.39 ± 0.42

Sequence	protein stability index (treatment: DMSO)	protein stability index (treatment: MLN4924 1 uM, 8 h)
NCIGIRDFALHYCLHHVHYLATEY [GAN]	3.1 ± 0.51	3.32 ± 0.33
NDALSCEYECRRRMLMKRLDVTVQ [FAM98B]	2.61 ± 0.24	2.78 ± 0.38
NFKAHVSPHEMLQAVVLCSKKTFQ [USP39]	2.25 ± 0.25	2.26 ± 0.3
NFVRERTLDKRWRVRKEAMMGLAQ [PDS5B]	2.8 ± 0.24	2.83 ± 0.39
NGDLSRSLSPSPLGSSAASTALER [FCHO1]	4.78 ± 0.22	4.83 ± 0.37
NGFTPLHFAAASTHGALCLELLVN [ANKRD44]	3.06 ± 0.71	2.95 ± 0.9
NGRACEMNGEECAEDLRMLDASGE [IKZF1]	5.07 ± 0.51	5.36 ± 0.53
NGTAWTYHSQDELGGFSHWGRLTS [PKD2L1]	2.38 ± 0.4	2.6 ± 0.2
NIIDIYKQESTRPEKKSDQPMCEE [TRIM55]	5.05 ± 0.26	5.02 ± 0.052
NIYCLNCEVPTCSLCKVFGAHKDC [TRIM55]	3.11 ± 0.35	3.21 ± 0.48
NKHLCYVFDSEKCVSIPDVVGWFV [GULP1]	2.76 ± 0.88	2.13 ± 0.51
NKILQVFWEEHKASLGREESRAPS [CBY2]	3.02 ± 0.13	3.09 ± 0.22
NKLTTLPSDFCGLTHLVKLDLSKN [LRRC59]	2.37 ± 0.12	2.31 ± 0.14
NLLQYVRMPLLTPRYITDVIDAEP [KLHL12]	2.29 ± 0.45	2.33 ± 0.26
NLQSLINNEIPDCYTFSVLITFDN [MCOLN1]	2.93 ± 0.22	3.23 ± 0.74
NMCMGRTSRGKLGGQDSFESIESY [ETS1]	3.612 ± 0.034	3.72 ± 0.49
NMERIMKAQALRDNSTMGYMMAKK [HSP90AB1]	3.38 ± 0.19	
NMSREPFSTRALVLSILHATLPGI [SOAT2]	3.18 ± 0.55	2.93 ± 0.62
NPIGHLPESLTKPDQVAPFTFLQP [ATF4]	3.56 ± 0.11	3.8 ± 0.49
NPQALSPQFTGILQLLQSRTSRKF [INTS3]	2.93 ± 0.22	2.98 ± 0.35
NREACRDLSGRRLRDVNHEKAMAE [SDE2]	5.01 ± 0.12	4.87 ± 0.32
NRERVVSLIEDLQRELEIPEQQVD [ZNF449]	5.13 ± 0.23	5.17 ± 0.16
